Laboratory results published in article PMC4772626.
Several values for one entry are separate records, joined by “and”; a condition that tells them apart may be missing. Equal entries are not always repeated.

Molecular target: SMV helper component protease tagged with the Flag epitope at the N-terminus (soybean mosaic virus strain G7H)
Test: affinity purification with mass spectrometry; crude extract of upper symptomatic soybean leaves at 15 dpi (20 mM Tris-HCl pH 7.5, 300 mM NaCl, 5 mM MgCl2, 5 mM dithiothreitol, 0.5% Triton X-100); anti-Flag antibody-conjugated agarose beads 16 h at 4 °C, five washes; 10% SDS-PAGE, Coomassie blue, dominant bands excised and identified by LC-MS/MS; Flag-tagged GFP as negative control

SMV helper component protease tagged with the Flag epitope at the N-terminus (natural protein)
stoichiometry N: 4 and 2
